Results: US9687529B2, “Method of controlling coagulation” (Duke University, priority 2011, dated 2017)
Values joined by “and” are separate entries in the source; they are usually repeats but may differ in a detail not shown here. Identical values can stand only once. Like-named read-outs stand apart in the source and are kept apart here. Strand notation (5' to 3'): a small letter for the sugar, then the base; units joined by * are phosphorothioate-linked, units joined directly phosphodiester-linked; [ ] holds rarer units or linkages, { } end groups; capitals alone tell only the bases. r = 2'-OH (RNA); f = 2'-fluoro

Legend:
[1] = system: clot formation in whole blood; assay: Antidote reversal TEG of 11F7T+R9D-14T anticoagulation; assay type: cell-based, human; settings: blood anticoagulated 1 hour with 11F7T 0.5 μM+R9D-14T 5 μM; protamine 22 μM (4-fold molar excess); average
Protocol: For the antidote reversal TEGs, whole blood was anticoagulated with a combination of the FXa (0.5 μM) and prothrombin (5 μM) aptamers for 1 hour as described, antidote (10 μL) was added, and the assay was continued until a stable clot was formed. For complete antidote reversal at one hour a 4-fold molar excess of protamine (22 μM) was added, 50 μg of CDP was added, or a 2-fold molar excess of the R9D-14T oligonucleotide (10 μM) in combination with a 3-fold molar excess of the 11F7T antidote oligonucleotide (1.5 μM) was added.
Whole blood was anticoagulated with 11F7T+R9D-14T at a dose that prevents clot formation for greater than three hours, and various antidotes were subsequently added after one hour to assess anticoagulation reversal and resulting clot formation. Both protamine and the β-cyclodextrin containing polymer (CDP) were tested for their ability to function as a universal antidote by simultaneously reversing both aptamers in combination (Oney et al, Nat Med 15:1224-8 (2009)). […] Thus, although the 11F7T+R9D-14T aptamer combination is an extremely potent anticoagulant cocktail that can mimic UFH anticoagulation in an ex vivo oxygenator circuit, the aptamer combination can be rapidly reversed with either a universal antidote or a combination of oligonucleotide antidotes.

clot formation in plasma = settings: cited from earlier work
thrombin = thrombin (Homo sapiens, UniProt P00734); settings: cited from earlier work
[2] = cited from earlier work
[3] = patient with renal failure; cited from earlier work
[4] = system: clot formation in whole blood; assay: TEG of whole blood, coagulation triggered by tissue factor (Example I); assay type: cell-based; settings: TF; FVIIa aptamer 0.5, FIXa aptamer 1.0, FXa aptamer 1.0 micromolar
Protocol: TEG is a waveform generated from serial measurements of the torque transmitted from a small oscillating cup to the tip of a metal pin inserted into the cup by a 360 microliter sample of blood or plasma added to the cup.
A 360 microliter blood sample has been added to the cup. For 180 minutes after the sample is added, the cup oscillates alternatively clockwise and counterclockwise through an arc of 4° 45′ at a frequency of one oscillation cycle—i. e., one clockwise rotation and one counterclockwise rotation—every 10 seconds. The lower end of the pin is immersed by the sample; the upper end is suspended from a torsion wire. The TEG analyzer records a single measurement of rotation-induced torque after each clockwise rotation and after each counterclockwise rotation of the cup. “The torque of the rotating cup is transmitted to the immersed pin only after fibrin-platelet bonding has linked the cup and [the] pin together. The strength of these fibrin-platelet bonds affects the magnitude of the pin motion, such that strong clots move the pin directly in phase with the cup motion. Thus, the magnitude of the output is directly related to the strength of the formed clot . . . . [If] the clot retracts or lyses, these bonds are broken and the transfer of cup motion is diminished. The rotation movement of the pin is converted by a mechanical-electrical transducer to an electrical signal which can be monitored by a computer” (TEG 5000 User Manual, pp 3-4, 1999-2007)). The computer converts the series of electrical signals into the TEG tracing.

[5] = system: thrombin generation in normal human platelet poor plasma; assay: Calibrated automated thrombography (CAT); assay type: biochemical; settings: TF 5 ρM
Protocol: Normal human platelet poor plasma (80 μL) was mixed with aptamer(s) (10 μL) in an Immunolon 2HB U Bottom Mictrotiter 96-well plate (Thermo Labsystems, Franklin, Mass.) and incubated at 37° C. for 5 min. PPP reagent (Diagnostica Stago, Parsippany, N.J.) (either 1 ρM or 5 ρM TF, 20 μL, Diagnostica Stago) was added, and the mixture was incubated at 37° C. for another 5 min. FluCa (Diagnostica Stago) (10 μL) was added to initiate the assay and thrombin generation was measured for 60 minutes at 37° C. with a Fluoroskan Ascent fluorometer (ThermoLabsystem, Helsinki, Finland) according to the manufacturer's instructions. The amount of thrombin generated was quantified by comparison to an assay with thrombin calibrator reagent (Diagnostica Stago) that has a known activity toward the fluorogenic substrate. The lag time, peak amount of thrombin generated, and endogenous thrombin potential (ETP) were automatically calculated by the Thrombinoscope software (Thrombinoscope BV, the Netherlands).
Thrombin is the final protease formed in the coagulation cascade, and the rate of thrombin generation and the total amount of thrombin generated is associated with blood clot formation and stability (Wolberg, Blood Rev 21:131-42 (2007)). To gain more information about the impact of aptamer anticoagulation on the kinetics of thrombin generation, the individual aptamers were analyzed with calibrated automated thrombography (CAT). The CAT assay measures real-time thrombin generation in plasma by monitoring cleavage of a thrombin-specific fluorogenic substrate in response to TF stimulation (Heruker et al, Pathophysiol Haemost Thromb 33: 4-15 (2003)). The parameters of thrombin generation analyzed include: the lag time (time until thrombin generation begins), the peak (the maximal amount of thrombin generated at a given time) and the endogenous thrombin potential (ETP, the total amount of thrombin generated). Similar to the aPTT and PT clotting assays, all of the individual aptamers dose-dependently impacted the various parameters of thrombin generation (FIG. 21 and Table 1). […] 9.3T minorly impacted all parameters of thrombin generation with the high TF reagent; however, because high concentrations of TF may bypass FIX activity by directly generating FXa, the manufacturer recommends low concentrations of TF for analyzing FIX deficient (i.e, Hemophilia B) plasma in the CAT.

[6] = system: clot formation in whole blood; assay: Thromboelastography (TEG), whole blood stimulated with tissue factor; assay type: cell-based, human
Protocol: Blood was drawn from healthy, consented volunteers under a Duke University Institutional Review Board approved protocol and anticoagulated with 3.2% sodium citrate. Whole blood (320 μL) was mixed with anticoagulant (heparin or aptamers) (10 μL) and kaolin (Haemonetics, Niles, Ill.) (10 μL) or CAT PRP reagent (Diagnostica Stago, 0.33 ρM TF final) (10 μL) was added to stimulate clotting. CaCl2 (20 μL) was immediately added to overcome the citrate, the mixture was added to a plain disposable plastic TEG cup (Haemonetics), and the assay was run according to the manufacturer's instructions. Clot formation at 37° C. was measured with a Thromboelastograph Analyzer (Haemonetics, Niles, Ill.) until a stable clot was formed (i.e., a maximum amplitude was reached) or for three hours with the aptamer combinations. The time lag time, α-angle, and maximum amplitude were automatically calculated by the TEG® Analytical Software version 4.2.3 (Haemonetics).
Because kaolin stimulates blood via the intrinsic pathway, it is unlikely that 7S-1 (FVIIa aptamer) would impair clot formation with this type of stimulation; thus, this aptamer was tested in a modified TEG with TF stimulation. CAT platelet rich plasma (PRP) reagent (TF) was diluted to a final concentration of 0.33 ρM TF to stimulate clotting.

[7] = system: clot formation in normal human platelet poor plasma; assay: Prothrombin time (PT) plasma clotting assay; assay type: biochemical
Protocol: The activated partial thromboplastin time (aPTT) and prothrombin time (PT) assays were performed on a model ST4 mechanical coagulometer (Diagnostica Stago, Parsippany, N.J.) as previously described (Bompiani et al, J Thromb Haemost 10:870-80 (2012)). For the aPTT, 50 μL of normal human platelet poor plasma (PPP) was incubated with 50 μL TriniClot aPTT S (Trinity BioTech, Bray, Co Wicklow, Ireland) at 37° C. for 5 min. Aptamer(s) (5 μL) was added, and the mixture was incubated at 37° C. for another 5 min, and CaCl2 (50 μL) was added to initiate the assay. For the PT, 50 μL of normal human PPP was incubated with 5 μL of aptamer(s) at 37° C. for 5 min. TriniClot PT Excel reagent (Trinity BioTech, Bray, Co Wicklow, Ireland) (100 μL) was added to initiate the reaction. Assays with a combination of two aptamers contain an equimolar concentration of each individual aptamer, and the data shown are the total RNA concentration.
To compare the anticoagulant effect of these four aptamers, dose-response titrations were performed in several clinical plasma-based clotting assays. The activated partial thromboplastin time (aPTT) and prothrombin time (PT) are plasma clotting assays that are clinically used to probe for abnormalities in the intrinsic and extrinsic coagulation pathways, respectively (Van Cott et al, editors. Jacobs & DeMott laboratory test handbook. 5th ed. Hudson Ohio: Lexi-Comp. p. 327-58 (2001)). These relatively simple assays measure the time until clot formation in platelet poor plasma (PPP) in response to either robust tissue factor (TF), or contact stimulation via negatively charged surfaces (i.e., silica, kaolin, celite). […] At high concentrations, the prothrombin aptamer (R9D-14T) was the most robust anticoagulant and inhibited greater than 96% of prothrombin activity in the aPTT and PT. At 4 μM, R9D-14T increased the aPTT clotting time approximately 18-fold and the PT clotting time greater than 80-fold (exceeded the assay limit of 999 sec). […] At the same dose, the FIXa aptamer (9.3T) inhibited greater than 99% of FIX activity and increased the aPTT clotting time approximately 5.5-fold, while the FVIIa aptamer (7S-1) increased the PT clotting time 3-fold and inhibited greater than 99% of FVII activity (FIGS. 20A and 20B).

[8] = system: clot formation in whole human blood; assay: TEG of dogbone aptamer in whole human blood; assay type: cell-based
Protocol: Activity of dogbone 4 was tested using thromboelastography (TEG), an assay using whole human blood.

[9] = concentration ten-fold higher than recommended for CPB

Molecule: protamine
- time to stable clot formation after antidote [1]: ≤ 15 min

Molecule: FPRPGGGGNGDFEEIPEEYL [bivalirudin]
- clot propagation and strength (in words) (clot formation in plasma; [9]): did not significantly reduce clot propagation and strength
- Kd (thrombin): ~1.9 nM
- in vivo half-life [2]: about 30 minutes

Molecule: lepirudin
- time the drug can remain in the circulation [3]: > 120 h
- clot propagation and strength (in words) (clot formation in plasma; 10 micrograms/mL, approximately 1.4 micromolar): significantly reduce clot propagation and strength

Molecule: CC1CNc2c(cccc2S(=O)(=O)N[C@@H](CCCNC(=N)N)C(=O)N2CC[C@@H](C)C[C@@H]2C(=O)O)C1 (some centres unmarked) [argatroban]
- clot propagation and strength (in words) (clot formation in plasma; [9]): did not significantly reduce clot propagation and strength

B1: 7S-1: FVIIa aptamer, 2'-fluoropyrimidine modified RNA, SEQ ID NO: 5 (nucleic acid)
chain: rGrGrGrArGrGrAfCrGrAfUrGfCrGrGrAfCfUfCfCfUfCfCrArArGfCrGrAfCfCrArAfCrAfUfCrGrGfUfCfCfCrGfUfUfUfCrArGrAfUfCrArAfCrArGrAfCrGrAfCfUfCrGfCfUrGrArGrGrAfUfCfCrGrArGrA
- clot formation (in words) [4]: none of those aptamers prevented clot formation
- ETP ([5]; RNA 1.25 nM): 1657.33 ± 42.72 nM·min
- Lag-time ([5]; RNA 1.25 nM): 1.67 ± 0.19 min
- Peak ([5]; RNA 1.25 nM): 314.56 ± 14.17 nM
- TTP ([5]; RNA 1.25 nM): 4.28 ± 0.20 min
- ETP ([5]; RNA 2.5 nM): 1603.50 ± 28.00 nM·min
- Lag-time ([5]; RNA 2.5 nM): 2.00 ± 0.17 min
- Peak ([5]; RNA 2.5 nM): 274.39 ± 29.71 nM
- TTP ([5]; RNA 2.5 nM): 5.29 ± 0.55 min
- ETP ([5]; RNA 5 nM): 1656.20 ± 96.89 nM·min
- Lag-time ([5]; RNA 5 nM): 3.17 ± 0.19 min
- Peak ([5]; RNA 5 nM): 238.68 ± 31.03 nM
- TTP ([5]; RNA 5 nM): 7.34 ± 0.55 min
- ETP ([5]; RNA 10 nM): 1339.50 ± 21.15 nM·min
- Lag-time ([5]; RNA 10 nM): 4.51 ± 0.42 min
- Peak ([5]; RNA 10 nM): 130.54 ± 14.06 nM
- TTP ([5]; RNA 10 nM): 11.01 ± 0.79 min
- ETP ([5]; RNA 30 nM): 1523.50 ± 160.63 nM·min
- Lag-time ([5]; RNA 30 nM): 6.01 ± 0.44 min
- Peak ([5]; RNA 30 nM): 199.25 ± 41.13 nM
- TTP ([5]; RNA 30 nM): 10.80 ± 1.03 min
- Angle ([6]; RNA 0.12 μM): 65.2 ± 5.2 deg
- Lag-time ([6]; RNA 0.12 μM): 4.5 ± 0.6 min
- Max. Amplitude ([6]; RNA 0.12 μM): 63.0 ± 3.7 mm
- Angle ([6]; RNA 0.25 μM): 62.4 ± 3.7 deg
- Lag-time ([6]; RNA 0.25 μM): 5.1 ± 1.2 min
- Max. Amplitude ([6]; RNA 0.25 μM): 64.0 ± 2.8 mm
- Angle ([6]; RNA 0.50 μM): 61.9 deg and 61.9 ± 3.3 deg
- Lag-time ([6]; RNA 0.50 μM): 6.6 min and 6.6 ± 0.8 min
- Max. Amplitude ([6]; RNA 0.50 μM): 63.1 mm and 63.1 ± 2.0 mm
- increase of PT clotting time ([7]; 4 μM aptamer): 3 fold
- FVII activity inhibited ([7]; PT, 4 μM): greater than 99%

B2: FX/FII dogbone 4: FX/FII dogbone aptamer of reduced size, SEQ ID NO: 22 (nucleic acid)
chain: GUCGAUCACACAGUUCAAACGUAAUAAGCCAAUGUACGAGGCAGACGACAAAGCCCCAGCGAGAUAAUACUUGGCCCCGCU
modifications: listed as RNA, chemistry not given here
- activity compared to the free combination of aptamers (in words) [8]: comparable or better activity than the free combination of aptamers
- activity compared to the free combination of aptamers (in words) ([8]; listed as Dogbone Aptamer 4): inhibits clot formation as well as the combination of individual Factor II (R9D-14T) and X (11f7T) aptamers
